The values that follow come from the supplement of paper PMC12764529.

A short description of data set [1]: folding stability dG unfold from trypsin proteolysis; higher = more stable. Here is the method: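 Folding stability of de novo designed mini-proteins (<80 aa, no Cys; designed by TrROS, TrMRF, ProteinMPNN and the joint model) was measured by cDNA display proteolysis with trypsin and chymotrypsin. Each protease was used at 11 concentrations in a threefold dilution series plus a no-protease condition. K50 was inferred by Bayesian fitting of sequencing counts, and dG unfold was derived against a sequence-predicted unfolded-state K50 (Tsuboyama et al. method). Sequences shown include variable-length N-terminal GS-type padding (SAGGSAGG...) inside a display construct carrying a PA tag. Rows were kept only if the AF2 dimer inter-PAE was >15, to exclude likely homo-oligomers.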

Data set [2] is described as follows: folding stability dG unfold (combined trypsin and chymotrypsin); higher = more stable. The method, boiled down:
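K50 was inferred by Bayesian fitting of sequencing counts obtained after protease digestion of designed mini-proteins. Unfolding free energy was derived by comparison with a sequence-predicted unfolded-state K50 and a shared folded-state K50, for each protease or both combined. The mini-proteins were under 80 residues, had no cysteine, were carried in a PA-tagged cDNA display construct, and were kept only if AlphaFold2 dimer inter-PAE exceeded 15.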

± gives the half width of the 95% confidence interval.

Regarding “AAVIPTPTAEPVKVETLSTEVSPSLFPSPAAGGPRVLRTVVTTKTTVAVQTEDAWVEVETTTTTTEVLPPES [r1_112_JUSTAS]”, the “folding stability dG unfold” value was -0.546 ± 0.21 kcal/mol in data set [1] and under -1 kcal/mol in data set [2].

With “MEFTITVEYDEETNELTVTITYPGYTIEIRIDPDGRIRVEVRMDPGMSEEERKRMQELAEELAKKLEEALKS [r1_468_TrROS_Hall]”, the figures for the “folding stability dG unfold” value in data set [1] and in data set [2] were 4.33 ± 0.69 kcal/mol and over 6 kcal/mol, respectively.

Regarding “SAGEELLREIAKKLNLPEGAEIVKVEIKVEEKDGRLRITITITVRNKETGELKTIEIEIEIELPEEEEESAG [r5_94_TrROS_Hall]”, the “folding stability dG unfold” value in data set [1] was determined as 3.9 ± 0.27 kcal/mol; in data set [2], 4.01 ± 0.43 kcal/mol.

With “SAGGANLKIDIERHPGNGNINATIKFDGEEITVPATLSDIEEIIDEIIRVKPVPYYEKDGKLKPHWASAGGS [r8_332_TrROS]”, the “folding stability dG unfold” value in data set [1] was -0.781 ± 0.19 kcal/mol; in data set [2], under -1 kcal/mol.

With “SAGGAVTSVSPGNGTTTVTVPISVPGSPVTLNIPTPDATLTPDPSGTVTVTLPPNGTYSITITGPRSDSAGG [r19_227_JUSTAS]”, the figures for the “folding stability dG unfold” value in data set [1] and in data set [2] were -0.688 ± 0.16 kcal/mol and under -1 kcal/mol, respectively.

As for “SAGGDPGAEKIGTKTYPVGDKELTIETYRLPDPDELKVVVTDPTDGKTTPITVSLSEPPNIPVAELLSAGGS [r16_768_JUSTAS]”, the “folding stability dG unfold” value is -0.276 ± 0.16 kcal/mol in data set [1] and under -1 kcal/mol in data set [2].

Consider “SAGGETEVVETNASPAELAERVAEALAAGREVTVTLPDGTVLDAGPDLADLPADTPVRLEFTPAVAASAGGS [r16_31_JUSTAS]”, for which the “folding stability dG unfold” value amounted to 0.841 ± 0.032 kcal/mol in data set [1] and 0.257 ± 0.17 kcal/mol in data set [2].

For the sequence “SAGGFKITEVEKDEKKGYPWVSIRIPPKSTLKKLKNMPGPVRIHNPEPGQWIHMPVDDPEEFLDKLLKSAGG [r13_604_TrROS]”, the “folding stability dG unfold” value in data set [1] is 0.274 ± 0.18 kcal/mol; in data set [2], -0.516 ± 0.94 kcal/mol.

Take “SAGGHRMDIQFDGSPDKIEEIQKKIHKKWPDYKVDDIEVNPGNPDQVTIRIEMDNGIPMNEIQEALMSAGGS [r16_180_TrROS]”: the “folding stability dG unfold” value in data set [1] was -1.32 ± 0.22 kcal/mol; in data set [2], under -1 kcal/mol.

Take “SAGGKIREVEIEEFDPDNGWVMITFNMPPEDLDKMKPIKLPGIKDVHWDPGNDHISASMPLEEAKEASAGGS [r16_614_TrROS]”: the “folding stability dG unfold” value is -0.121 ± 0.17 kcal/mol in data set [1] and -0.5 ± 0.41 kcal/mol in data set [2].

“SAGGLDSAPPVEVKVEVEEEKTKDPNSDSEVTKYKITVTTTVGGTPIVTEEESIVYKKPDGTIIVEKKSAGG [r19_260_JUSTAS]”: the “folding stability dG unfold” value in data set [1] was -0.403 ± 0.28 kcal/mol; in data set [2] it was -0.242 ± 0.96 kcal/mol.

“SAGGMEVVENPGGNLKIIEKEPEGPEFVKTTTTTIKTFKNPGGSTSSTITTTTTTVKISKSKNPELLSAGGS [r16_802_JUSTAS]”: the entries for the “folding stability dG unfold” value in data set [1] and in data set [2] were -0.742 ± 0.26 kcal/mol and -0.784 ± 0.3 kcal/mol, respectively.

In the case of “SAGGMKIRLDNGKEIEINQSPGYMSIQIRPPDDGKKREYPFPMPDGENSMEDFVNEIANHGRITEIEPSAGG [r13_579_TrROS]”, the “folding stability dG unfold” value in data set [1] was 0.522 ± 0.075 kcal/mol; in data set [2], -0.249 ± 0.23 kcal/mol.

On to “SAGGMKTTFTITHPDAEKAREALEKAVPSDLDVEPEFTPTPDGYTTTVTVPAEHPEVAAAALAAALASAGGS [r16_43_JUSTAS]”, for which the “folding stability dG unfold” value in data set [1] was 0.0621 ± 0.09 kcal/mol; in data set [2], under -1 kcal/mol.

For “SAGGMKVEVVETPTSLQIVTTTISTEKIPFNDVTLTTVTTEVKTIPLPEKPPVGLPYFDPEGKPLLLSAGGS [r8_46_JUSTAS]”, the “folding stability dG unfold” value in data set [1] is -0.0171 ± 0.07 kcal/mol; in data set [2], -0.424 ± 0.18 kcal/mol.

Turning to “SAGGMMKIKITFADGTTKEIELPEDVTEVTITYDEKTGKVTITVRLKNGETKTITIPADKITKIEIESAGGS [r16_658_TrROS_Hall]”, the “folding stability dG unfold” value is 5.39 ± 0.7 kcal/mol in data set [1] and over 6 kcal/mol in data set [2].

Consider “SAGGMNPDNFKPVRTYTLPFDGHKIEVEVWEPPNGNPLIPIQLEDDNGKPKGPQWIPPDQIDENGKILSAGG [r13_447_TrROS]”, for which the “folding stability dG unfold” value was 0.343 ± 0.091 kcal/mol in data set [1] and -0.213 ± 0.28 kcal/mol in data set [2].

Turning to “SAGGMPEGDFWVRIRIPVPKYEMERDPNDPNDYKMEPEWKPKEIWLPVKSPEALDEFRENGFEIEPFSAGGS [r8_482_TrROS]”, the “folding stability dG unfold” value was 0.251 ± 0.091 kcal/mol in data set [1] and -0.137 ± 0.16 kcal/mol in data set [2].

Turning to “SAGGMSKEEARKAIENPADATYTFTITTRPSTPTPSSTTTTVTAKVTDPDAFLDAVPEGHSVTVTASSAGGS [r16_116_JUSTAS]”, the “folding stability dG unfold” value in data set [1] was -0.465 ± 0.14 kcal/mol; in data set [2], under -1 kcal/mol.

For the sequence “SAGGMTKPTSSPSPLDPSTPPEEWIAAIEKELPPDWRIVEPRPRPGPRLVTVLAEDPNSGKRVILRASAGGS [r16_250_JUSTAS]”, the “folding stability dG unfold” value in data set [1] was -0.989 ± 0.55 kcal/mol; in data set [2], under -1 kcal/mol.

For “SAGGMTTTVTVEKFPDGSVTEVTTLPNGIVLTTPLPYTKVVPVDPPDGPAVSWGPVTVTSTESVSSEASAGG [r13_236_JUSTAS]”, the “folding stability dG unfold” value amounted to 0.393 ± 0.068 kcal/mol in data set [1] and 0.0898 ± 0.26 kcal/mol in data set [2].

For the sequence “SAGGMTVTVPREGPVTEEDVEKIAAELAAQGLKEVPLVVIETEKGSLPDGRPTELVRERTYYYEYPESAGGS [r16_44_JUSTAS]”, the “folding stability dG unfold” value in data set [1] was -0.307 ± 0.31 kcal/mol; in data set [2] it was under -1 kcal/mol.

For “SAGGMYTLSEKTLPDGSKLLTVTRPDKPEEVFLPKEAENLPPETPVTTRGAGGEEVRPVAEILPPALLSAGG [r13_97_JUSTAS]”, the “folding stability dG unfold” value in data set [1] was 0.257 ± 0.11 kcal/mol; in data set [2], -0.215 ± 0.18 kcal/mol.

For “SAGGNYYPMEFRNPENNHEIRITVERDPPGMYRINIQIENPNGNQIPFPMTMPPDDFKPGDEFEIKIPSAGG [r13_959_TrROS]”, the “folding stability dG unfold” value in data set [1] amounted to 0.676 ± 0.16 kcal/mol; in data set [2], 0.213 ± 0.44 kcal/mol.

For the sequence “SAGGQTIEIPNGITITYYPNNQVTITIRYPGRPLTVTSPYDSPEEAIDNIIEQAREMARPPPPKKKDDSAGG [r13_896_TrROS]”, the “folding stability dG unfold” value came to 0.633 ± 0.16 kcal/mol in data set [1] and 0.68 ± 0.41 kcal/mol in data set [2].

For “SAGGSADSVMIPVESPEEIKEELQEGPPKRVELPNPDGERYWIQIDWDDPENIEVMPPDDPEKMKPSAGGSA [r15_11_TrROS]”, the “folding stability dG unfold” value in data set [1] is 0.716 ± 0.13 kcal/mol; in data set [2], 0.0877 ± 0.28 kcal/mol.

Take “SAGGSAEPPVKEIAEKLIKKSKKPIIATVVEKKKDGYLVTKVKYIPNTGKPIIKVKKITPEELKKKSAGGSA [r15_156_TrMRF]”: the “folding stability dG unfold” value is 0.159 ± 0.097 kcal/mol in data set [1] and -0.785 ± 0.7 kcal/mol in data set [2].

For “SAGGSAGGAEITIELTEDGTLRITVDGKKLEIRLEPAPPPVEVKTERVLDPDTDELTTRTETVLSAGGSAGG [r6_34_TrROS_Hall]”, the “folding stability dG unfold” value in data set [1] is 0.203 ± 0.19 kcal/mol; in data set [2], -0.548 ± 0.43 kcal/mol.

Regarding “SAGGSAGGDGDFRVSIDPEELPDGQEYKISIQSPDGKPIAEIPIRIPLPPPKPERDDNGKPKPVSAGGSAGG [r6_487_TrROS]”, the “folding stability dG unfold” value in data set [1] came to 0.844 ± 0.025 kcal/mol; in data set [2], 0.216 ± 0.099 kcal/mol.

Turning to “SAGGSAGGEPRELEAEVEVIEFPPTGVALAVIRVNDGAEPRLIPVPFDAPEDVTPEELAKKILGSAGGSAGG [r6_20_TrMRF]”, the “folding stability dG unfold” value in data set [1] was -0.826 ± 0.63 kcal/mol; in data set [2] it was under -1 kcal/mol.

As for “SAGGSAGGKIEIVIEGLSEEEVEALAKELRDAGLEIEVTVVPPPAPPPLTAEELAKNPEALKALSAGGSAGG [r6_804_TrROS_Hall]”, the “folding stability dG unfold” value in data set [1] came out at 0.714 ± 0.053 kcal/mol; in data set [2] it was 0.02 ± 0.26 kcal/mol.

In the case of “SAGGSAGGSAGGSMTRVFVRKPDYWLEVEEYPDPKNPDRIRLTVKKKIPLSEVTPEELASAGGSAGGSAGGS [r4_316_JUSTAS]”, in data set [1], the “folding stability dG unfold” value is -0.0403 ± 0.26 kcal/mol.

For “SAGGSAGGSPRYQIPFEFPNGRNLYIQIERDPEEGQVKVDIMFPDGGTKEITVPPGEEIKIPWSAGGSAGGS [r12_922_TrROS]”, the “folding stability dG unfold” value in data set [1] was -0.659 ± 0.62 kcal/mol.
